The results in this text go back to US20160377619A1 (published 2016).

The assay has as its target lysyl-tRNA synthetase (KRS), recombinant (human, UniProt Q15046 1-597). Put plainly: SPR.

Chain of lysyl-tRNA synthetase (KRS), recombinant (Q15046 whole entry): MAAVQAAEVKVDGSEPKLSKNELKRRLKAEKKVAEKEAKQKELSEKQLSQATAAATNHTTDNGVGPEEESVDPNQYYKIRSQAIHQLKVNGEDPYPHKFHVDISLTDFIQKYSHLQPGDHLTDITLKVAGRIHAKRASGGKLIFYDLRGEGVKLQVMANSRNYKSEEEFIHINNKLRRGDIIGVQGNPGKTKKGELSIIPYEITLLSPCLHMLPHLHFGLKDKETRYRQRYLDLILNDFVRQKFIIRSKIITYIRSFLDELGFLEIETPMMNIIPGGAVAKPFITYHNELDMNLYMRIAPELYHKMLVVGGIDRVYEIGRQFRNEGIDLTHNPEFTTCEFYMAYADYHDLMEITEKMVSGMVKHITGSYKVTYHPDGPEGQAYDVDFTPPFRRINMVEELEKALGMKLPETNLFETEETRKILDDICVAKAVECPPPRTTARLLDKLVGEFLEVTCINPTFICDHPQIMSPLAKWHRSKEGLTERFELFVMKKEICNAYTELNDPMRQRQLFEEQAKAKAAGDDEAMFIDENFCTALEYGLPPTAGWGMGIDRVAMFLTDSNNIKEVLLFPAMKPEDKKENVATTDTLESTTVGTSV

B1: anti-KRS scFv Biocon-K1 (scFv)
scFv: EVQLLESGGGLVQPGGSLRLSCAASGFTFSNYAMSWVRQAPGKGLEWVSGISPSSGDTYYADSVKGRFTISRDNSKNTLYLQMNSLRAEDTAVYYCAKGVWWYHPLLFDYWGQGTLVTVSSGGGGSGGGGSGGGGSQSVLTQPPSASGTPGQRVTISCSGSSSNIGNNTVSWYQQLPGTAPKLLIYANSKRPSGVPDRFSGSKSGTSASLAISGLRSEDEADYYCGAWDSSLSGYVFGGGTKLTVL
Consider B1, for which the Kd worked out at 110 nM.

One may read the Kd as the constant that tells how readily two partners part at equilibrium.
